B1: mouse Bcl-xLΔC24 (domain or fragment)
chain: MSQSNRELVVDFLSYKLSQKGYSWSQFSDVEENRTEAPEETEAERETPSAINGNPSWHLADSPAVNGATGHSSSLDAREVIPMAAVKQALREAGDEFELRYRRAFSDLTSQLHITPGTAYQSFEQVVNELFRDGVNWGRIVAFFSFGGALCVESVDKEMQVLVSRIASWMATYLNDHLEPWIQENGGWDTFVDLYGNNAAAESRKGQER
B2: loop-deleted human BCL-XL (Δ27–82, ΔC24) (domain or fragment)
chain: MSQSNRELVVDFLSYKLSQKGYSWSQMAAVKQALREAGDEFELRYRRAFSDLTSQLHITPGTAYQSFEQVVNELFRDGVNWGRIVAFFSFGGALCVESVDKEMQVLVSRIAAWMATYLNDHLEPWIQENGGWDTFVELYGNNAAAESRKGQER

Assays:
[1] = biological target: B2; test: crystal structure
[2] = biological target: BIM BH3 synthetic peptide; test: SPR
[3] = biological target: the molecule itself; test: crystal structure
[4] = biological target: B1; test: SPR
[5] = biological target: mouse Bcl-xL Y101FΔC24 (mouse, UniProt Q64373-1 1-209, Y101F)
[6] = biological target: mouse Bcl-xL Y101F/Q111AΔC24 (mouse, UniProt Q64373-1 1-209, Y101F | Q111A)
[7] = biological target: human BCL-XLΔC24 (human, UniProt Q07817-1 1-209); test: ELISA

## LPLQPSSTMGQVGRQLAIIGDDINRRYDSEFQTM [hBAK BH3 synthetic peptide]
[1]
  binding result: binds

## B1
[2]
  binding result: binds

## B2
[3]
  binding result: binds

## LPLEPNSILGQVGRLLALIGDDINRRYDTEFQNL [mBak Q75L BH3 synthetic peptide]
[1]
  binding result: binds
[4]
  fold weaker binding than wild-type Bak BH3: ~7 fold

## LPLEPNSILGQVGRQLALIGDDINRRYDTEFQNL [mBak BH3 synthetic peptide]
[5]
  fold weaker binding than wild-type Bcl-xL: ~3.5 fold
[6]
  fold weaker binding than wild-type Bcl-xL: ~3.5 fold

## PSSTMGQVGRQLAIIEDDINRRYDSE [phage-displayed human BAK BH3 peptide G82E]
[7]
  IC50: > 10 µM

## PSSTMGQVGRALAIIGDDINRRYDSE [phage-displayed human BAK BH3 peptide Q77A]
[7]
  fold reduction in binding against wild-type BAK BH3 (from IC50): 8 fold

## PSSTMGQVGAQLAIIGDDINRRYDSE [phage-displayed human BAK BH3 peptide R76A]
[7]
  fold reduction in binding against wild-type BAK BH3 (from IC50): 4 fold
